Assay: soluble on expression in E. coli; label from the status in PepcDB or PDB records

Sequence | soluble on expression in E. coli
MSLQQPLAYRMRPRHLDEVVGQQHLVGPGKIIRRMVEAKMLSSMILYGPPGTGKTSIASAIAGSTNYAFRMLNAATDTKKDLQIVAEEAKMSGTVILLLDEIHRLDKTKQDFLLPHLENGRIIMIGATTENPYITINPAIRSRTQIFEVKPLTETDIQQAIQEALTDSTRGLGDYPVHLEEKALQHLTRATNGDLRSALNGLELAVKSTPKNEQGEIKITLPIIEECVQRKALTHVKDGDAHYDVISAFQKSIRGSDVDAALHYLGRLVEAGDLPIICRRLMVIAYEDIGLGNPAAAARTVTAVQAAEKLGFPEARIPLASVVIDLCLSPKSNSAVTAIDAALADIRQGSVGDVPDHLRDAHYAGAKELNRGIGYQYPHNFENGWVNQQYLPDKLKEARYYEPIDIGKYEQALHQQLKRIQEWKEGHHHHHH | soluble
MNRGVITISESGTVSMPTYTVWMTLQEIADMYNVFGCYVRKAVKAIFKDGILKEQGVRRHVRKNDRISYDVYSLELVIAVAFRIDSIESRAFREFIMQSVIGRQTSRTKLVCIFTENAMA | not soluble
MGKGVAFFSGGKDGLYALYLAEEMGIEVPYLLVLKTSIGLSPHWENLDALKTLAKVMEREILTFDMRRGSKALAEFISSLDVDYLIAGDVYLEDHILWVKSLAEEANVKPLEPLWGRNTRKLAEEMLREGFNWAIIAVDKRKLGKEWLGYTFRSIEDLENFLRANPNVDPLGEVGEFHTVVLNSPLFALNFELKVESIEEDERYWWLRFELREVEKWNLNS | soluble
MGSDKIHHHHHHMPQYTVYLAPAGYEQDLIDELGPRVIDVRGRLVRASGGPRHAAWAQNIWLDPVEMRIGSIGDAATRLKGIQRNWFLHAVDHHRRAALIAGKLPHVSARPHVFGTPAPTAPLGSWTLWEHDLVIASARCSSPFPDGEVHFVENRIDPPTRAYLKLWETFTRLGVQPAPGELCLDMGSCPGGWTWVLAGLGARVFSVDKADIAPHIAAMPNVNFCTGSAFGLDPQHAGAVDWFFSDVICYPDRLLATVQRWLERGQCRNFVCTLKFQATTDHATAAAFAAIPGSQLFHLAHNKHELTWVLLRDKA | not soluble
MGSDKIHHHHHHMGQRIPVTLGNIAPLSLRPFQPGRIALVCEGGGQRGIFTAGVLDEFMRAQFNPFDLYLGTSAGAQNLSAFICNQPGYARKVIMRYTTKREFFDPLRFVRGGNLIDLDWLVEATASQMPLQMDTAARLFDSGKSFYMCACRQDDYAPNYFLPTKQNWLDVIRASSAIPGFYRSGVSLEGINYLDGGISDAIPVKEAARQGAKTLVVIRTVPSQMYYTPQWFKRMERWLGDSSLQPLVNLVQHHETSYRDIQQFIEKPPGKLRISEIYPPKPLHSIALGSRIPALREDYKLGRLCGRYFLATVGKLLTEKAPLTRHLVPVVTPESIVIPPAPVANDTLVAEVSDAPQANDPTFNNEDLA | not soluble
MGNTAITRVQMEATKSVPVDHAKYMSGSGAPPPECPMHQKHGDAKSASAVPPHPKMQAASECPVQHDNSDVNPLNMMPPANQQPAADQPFPLPTDRQTSTIPKVTEDGSVQFWQYPSQQMFWNAMLRKGWRWKTEDVSQKDMGDIIRIHNANNEQAWQEVLKWEALHAKECGNPRLKSFGGKAKDFSPRARFRSWLGYELPFDRHDWIVDRCGKDVRYVIDYYDGGLVDKDYRFALLDVRPAMDSVDNVWDRMRVAYMRWKYELFEKFGSADGGKVTAGSDLEHHHHHH | not soluble
MGSDKIHHHHHHMNELTEFNARNDLDNELASTVSDILAKAIKEKGKASIAVSGGSTPKGFFSVLSQSDIDWSKVTITLADERWVPIDSEASNTRLVHENLLQNKAEKAKFFHLKQGDELTDETLEDLNVAASKILLPLDVLILGMGEDGHTASLFPCSDQITSGLDETNDAALLKVQPKTAPHQRISFTFASLMTSKNIFLHSCGEGKKTVLTQVLNGDDPFEMPIRAFLQHPSLNTQIFWAP | not soluble
IVMAETKETVIDEVVVTGTGAQKKVTVTGAVTTVDVSQLRTPTASITNALAGNVAGILARQTSGQPGSNISEFWIRGISTFGAGGSALVLVDGFERDMNEINVEDIQDFSVLKDASATAIYGSRGANGVVLITTKRGKEGK | not soluble
MTLTKGSFTYSSGEEYRGEWKEGRRHGFGQLVFADGGTYLGHFENGLFNGFGVLTFSDGSRYEGEFSQGKFNGVGVFIRYDNMTFEGEFKNGRVDGFGLLTFPDGSHGIPRNEGLFENNKLLRREKCSAVVQRAQSASKSARNLTA | soluble
MTVISSHWWRCISLNSKSNRCSSSSGNHLMMGGKKTCVLMRATFMVIATDYEFERRWCRRTGTIAGCHLISKQAEVGEMMCMIEL | not soluble
MGSDKIHHHHHHMNSLQFPRHGDKENSAFFEEYLVKLLEERDAMGLTAMVHEIDALMITVDPGHSVKYVAELCFMTSYHYLVTLESESHWTHVLRIDLDSPDLLVREVKDPNLRGIFRSLNEIYPVGARKPNSRYMGEIIRVNNLHDVVKLQQEREFRFFTQDEVRKLELPGNLAVSKPSPYTHNIVAYLERKPDEMRVYSLGVSRVDAELQMAYEAAKRLQEKLNFADLLLPIDHLATRVYSQNREVAILEYLSWSSYYFWGAYNIFDQNSSTNVTKSAHGLPESKSPAKVFTANNTPYFVNHLEKLPSPTETFVRNYGPRLHHIAVAVRDGERDGLEHIEFAVNAIASQGKGFLLDVIGSREEGLKQIFSNASEHSSLIVEYVQRFGDFQGFFTKENVAVLTEAAGREEGVKSGASLG | not soluble
MGSDKIHHHHHHAEPAPSQEDMRLYTIASAPSAGRIEQDIKTLVGFGTRHTLSQTDSNAQGIGAARRWIETEFQRISAKCNGCLEVVTLSETVSGKRIPNPTEVVNVIAIQRGLTDPNRAVVMTGDIDSRVTDVMNSSAISPGANDNASGVAGTLEAARVLSQYQFAGTIIYAALSGEEQGLYGGDILINHAKAQGLQIQAVLNNDMIGNIAGINGVIDNHSVRVFSEGVRIAETSEEAKERYFSGGENDSASRNLARKIKSLADQYMTNLDVQLINRLDRFGRGGHHLPFNKAGFAAVRVMETNEHYHRQHQDIRTENGIAYGDVIEGVDFDFNAKLTALNAISLAAMAWAPAPPKEVKISGEVSADTVLKWTVNNKDKALVGYRVYWRNTTASEWTHSRYVGKLGQFTLKNLVIDNYLFGVASVSADGNTSPVVFPGAIGAF | not soluble
GTQGKVIKCKAAIAWKTGSPLCIEEIEVSPPKACEVRIQVIATCVCHTDINATDPKKKALFPVVLGHECAGIVESVGPGVTNFKPGDKVIPFFAPQCKRCKLCLSPLTNLCGKLRNFKYPTIDQELMEDRTSRFTCKGRSIYHFMGVSSFSQYTVVSEANLARVDDEANLERVCLIGCGFSSGYGAAINTAKVTPGSTCAVFGLGCVGLSAIIGCKIAGASRIIAIDINGEKFPKAKALGATDCLNPRELDKPVQDVITELTAGGVDYSLDCAGTAQTLKAAVDCTVLGWGSCTVVGAKVDEMTIPTVDVILGRSINGTFFGGWKSVDSVPNLVSDYKNKKFDLDLLVTHALPFESINDAIDLMKEGKSIRTILTF | soluble
MLHCLDEFGNLKLKAIIDWQGVSTLPPGLDLSRLLMGCLSAHERRERGLEMLKLYHETFNQVLGKELFSFQELQDSYNLYYPMMAMALLPLVSSLAENSQVSEVEKAQIRFKTETKLVAMMEDLIEVHEYNLKHFPEILKG | not soluble
MSLFQITKSKLRFPLSTFTKRYSSFQAAKSVIDKAAIDGELRVFIVSGEVSGDNIGSRLMSSLKKLSPLPIRFNGVGGSLMCKKGLNSLFPMEDLAVMGVWELLPHLYKFRVKLKETIDAAVKFKPHVVVTVDSKGFSFRLLKELRGKQHKTCFIKLVRENHEGHHHHHH | not soluble
MGSDKIHHHHHHMDSELRKRFNPDGSLLRRQQLRMLELLEVIDVICRKHQIPYWLSSGTLIGAARHKGFIPWDDDLDIEMLRSDYLRLLKVLPQELPDNLALQTNETDPNYIFIYGKLRDKDSHLEETNSYDRIFHYTGIYIDIFPLEKIPYCLAWIGGHMQGQIYNQLNNKNIKESTLYKRIRRIYHFNTRIGFPILRFIAKLFPGKELRHSFGTAYFKPRYTDDIFPLTEMEFEGKMFPVPRQTDAVLRKIYGDYMQLPDLENIHPHYNKLEFYK | not soluble
MKKTTLMSAVVATLSLVGCQSTTGSSDAQPEQTSHISQAVYEVEFHAAQSFLSQASQLEQSFADFCLAPKNDVEPVQQQWHSTMLAWMALQGQERGPATALEQSWNVQFWPDKKNTTGRKMSALTKADKVWTVEEISTQSVTVQGLGALEWLLYDDASTLNTNSNVCASGVAIAENLHDKAQIIANSWAENPWKSLQKTEWESEYISLLSNQLEYSMKKLSRPLAKIGHPRPYFSESWRSETSLSNLKANLESLHQLYFANGKGLDALLRAQGKTQLADRVAYQFDMALETWPEDKSLFSALQSVDGYRLVLAQYNKLEQLKYLIHEEVAIELGVVIGFNATDGD | not soluble
MSLSWLGNDDRRKKDPEVFQTVSDGLKKLYKTKLLPLEEYYRFHEFHSPALEDADFDNKPMVLLVGQYSTGKTTFIRYLLEQDFPGMRIGPEPTTDSFIAVMQGDVEGIIPGNALVVDPKKPFRKLNAFGNAFLNRFVCAQLPNAVLESISVIDTPGILSGEKQRISRGYDFAAVLEWFAERVDRIILLFDAHKLDISDEFSEVIKALKNHEDKMRVVLNKADQIETQQLMRVYGALMWSLGKIVNTPEVIRVYIGSFWSHPLLIPDNRKLFEAEEQDLFRDIQSLPRNAALRKLNDLIKRARLAKVHAYIISSLKKEMPSVFGKDTKKKELVNNLAEIYGRIEREHQISPGDFPNLKKMQDQLQAQDFSKFQPLKSKLLEVVDDMLAHDIAQLMVLVRQEETQRPVQMVKGGAFEGTLQGPFGHGYGEGAGEGIDDAEWVVARDKPMYDEIFYTLSPVDGKITGANAKKEMVRSKLPNSVLGKIWKLADIDKDGMLDDEEFALANHLIKVKLEGHELPSELPAHLLPPYKRKVSEGHHHHHH | soluble
MWYRALFPGATWRIPAKEGKSIYLTFDDGPIPEITPWVLDTLDELGVKATFFCVADNVRRYPDLFAEIQRRGHQVGNHTFHHLQGLKVRTRTYLKDVEEADRLINSRFFRPPHGHLRFMQTLLLSNHYDIIMWDVITRDYNARLSPDTVFGSVVRYARNGSIITFHDSLKAAPNMQQAMPRAVRWLLDEGYTFKCLGDPAD | not soluble
MLFTVTAPKEVYTVDVGSSVSLECDFDRRECTELEGIRASLQKVENDTSLQSERATLLEEQLPLGKALFHIPSVQVRDSGQYRCLVICGAAWDYKYLTVKVKASYMRIDTRILEVPGTGEVQLTCQARGYPLAEVSWQNVSVPANTSHIRTPEGLYQVTSVLRLKPQPSRNFSCMFWNAHMKELTSAIIDPLSRMEPKVPRT | soluble
MGSDKIHHHHHHMYTFTNQFISNDKNVEFLKAAMMGPNAMRLAEELSSHLNIDETMRILDLGCGCGLSTLLLTKKYGASVFAADLWISPTENYERFQSLGIADKAVPISVDATKGLPFAKGYFDLLFTVDAYHYFGDTAAMLPSLIPFVKKGGYIAVAIPGLNYEFEDKVPDEMQPFWNSEMARTLHSLDWWKDLWKKAEGIEMVDSREMACCREAWQEWLTAYHPIVAEDIKMMAAEDGKYFNLVQLIAKVL | not soluble

Reference: the DeepSol protein solubility set
